Test results reported in IntAct's records for PubMed 20974977.

B1: Interleukin-27 subunit beta (Homo sapiens), Q14213 (parent)
chain: MTPQLLLALVLWASCPPCSGRKGPPAALTLPRVQCRASRYPIAVDCSWTLPPAPNSTSPVSFIATYRLGMAARGHSWPCLQQTPTSTSCTITDVQLFSMAPYVLNVTAVHPWGSSSSFVPFITEHIIKPDPPEGVRLSPLAERQLQVQWEPPGSWPFPEIFSLKYWIRYKRQGAARFHRVGPIEATSFILRAVRPRARYYVQVAAQDLTDYGELSDWSLPATATMSLGK
partner: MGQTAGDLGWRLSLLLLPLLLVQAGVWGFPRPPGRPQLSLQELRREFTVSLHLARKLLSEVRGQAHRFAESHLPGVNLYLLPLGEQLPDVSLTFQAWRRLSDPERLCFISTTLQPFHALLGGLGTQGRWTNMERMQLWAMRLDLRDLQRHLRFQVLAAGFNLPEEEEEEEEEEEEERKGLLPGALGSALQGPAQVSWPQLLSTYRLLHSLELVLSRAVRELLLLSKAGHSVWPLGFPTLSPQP
B2: Interleukin-27 subunit alpha (Homo sapiens), Q8NEV9 (parent)
chain: B1 partner
partner: B1 chain

Variants of: B1
Settings: with il27a_human IL27, Q8NEV9

| effect of a mutation on the interaction | Variant |
| --- | --- |
| disrupting interaction | D210A |
| decreasing interaction | E159A |
| decreasing interaction | F97A |

Variants of: B2
Settings: with il27b_human EBI3, Q14213

| effect of a mutation on the interaction | Variant |
| --- | --- |
| disrupting interaction | W97A |
| increasing interaction | W197A |
